The values that follow are results of earlier work, collected in paper PMC3433420.

Like-named read-outs stand apart in the source and are kept apart here.

Holding throughout (conditions): cited from earlier work
The target of data set [1] is FGR (Homo sapiens) (UniProt P09769).
The target in data set [2] is SYK-NC (Homo sapiens) (UniProt P43405).
Data set [3] deals with SHC1 (Homo sapiens) (UniProt P29353).
For data set [4], the target named is PLCG1-NC (Homo sapiens) (UniProt P19174).
Data set [5] concerns the target FER (Homo sapiens) (UniProt P16591).
Data set [6] addresses TNS4 (Homo sapiens) (UniProt Q8IZW8).
Data set [7] has as its target ABL1 (Homo sapiens) (UniProt P00519).
Data set [8] deals with PIK3R2-N (Homo sapiens) (UniProt O00459).
Chain of PIK3R2-N (Homo sapiens) (O00459 325-721): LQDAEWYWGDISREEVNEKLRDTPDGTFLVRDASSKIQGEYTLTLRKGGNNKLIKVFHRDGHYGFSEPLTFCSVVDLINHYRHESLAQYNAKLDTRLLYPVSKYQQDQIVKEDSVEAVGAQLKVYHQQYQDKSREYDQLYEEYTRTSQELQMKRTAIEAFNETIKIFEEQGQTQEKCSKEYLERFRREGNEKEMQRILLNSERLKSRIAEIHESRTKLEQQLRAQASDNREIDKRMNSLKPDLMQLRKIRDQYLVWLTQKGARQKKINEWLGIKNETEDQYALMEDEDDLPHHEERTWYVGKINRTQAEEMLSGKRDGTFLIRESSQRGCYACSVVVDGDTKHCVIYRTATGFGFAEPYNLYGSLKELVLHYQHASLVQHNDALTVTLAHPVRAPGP
Data set [9] deals with CRK (Homo sapiens) (UniProt P46108).
Chain of CRK (Homo sapiens) (P46108 8-123): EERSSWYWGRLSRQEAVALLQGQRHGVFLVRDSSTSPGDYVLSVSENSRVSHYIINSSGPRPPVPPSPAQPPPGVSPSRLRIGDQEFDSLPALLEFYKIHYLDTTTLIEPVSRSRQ
Data set [10] concerns the target PIK3R2-NC (Homo sapiens) (UniProt O00459).
Data set [11] has as its target PLCG2-NC (Homo sapiens) (UniProt P16885).
The target of data set [12] is CRKL (Homo sapiens) (UniProt P46109).
Chain of CRKL (Homo sapiens) (P46109 9-107): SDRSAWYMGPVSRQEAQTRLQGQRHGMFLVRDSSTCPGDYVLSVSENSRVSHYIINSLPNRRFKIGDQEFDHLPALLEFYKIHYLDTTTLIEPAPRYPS
Data set [13] addresses NCK2 (Homo sapiens) (UniProt O43639).
Data set [14] deals with PLCG1-C (Homo sapiens) (UniProt P19174).
Chain of PLCG1-C (Homo sapiens) (P19174 545-761): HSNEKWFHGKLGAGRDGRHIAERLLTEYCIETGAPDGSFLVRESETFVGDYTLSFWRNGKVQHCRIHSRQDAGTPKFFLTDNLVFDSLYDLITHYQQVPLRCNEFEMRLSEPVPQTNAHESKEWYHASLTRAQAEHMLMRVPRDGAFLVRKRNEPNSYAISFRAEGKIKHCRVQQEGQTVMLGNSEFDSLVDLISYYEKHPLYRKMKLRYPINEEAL
Data set [15] deals with VAV3 (Homo sapiens) (UniProt Q9UKW4).
Chain of VAV3 (Homo sapiens) (Q9UKW4 667-771): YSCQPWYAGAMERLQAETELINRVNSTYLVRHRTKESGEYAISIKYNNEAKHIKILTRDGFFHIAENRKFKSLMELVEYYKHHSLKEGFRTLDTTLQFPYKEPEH
Data set [16] has as its target PIK3R3-NC (Homo sapiens) (UniProt Q92569).
Data set [17] deals with LYN (Homo sapiens) (UniProt P07948).
Chain of LYN (Homo sapiens) (P07948 124-231): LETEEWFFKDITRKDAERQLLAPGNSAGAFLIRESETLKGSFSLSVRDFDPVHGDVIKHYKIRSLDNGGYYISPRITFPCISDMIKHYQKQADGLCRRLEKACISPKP
Data set [18] addresses BLK (Homo sapiens) (UniProt P51451).
For data set [19], the target named is SUPT6H (Homo sapiens) (UniProt Q7KZ85).
Chain of SUPT6H (Homo sapiens) (Q7KZ85 1320-1436): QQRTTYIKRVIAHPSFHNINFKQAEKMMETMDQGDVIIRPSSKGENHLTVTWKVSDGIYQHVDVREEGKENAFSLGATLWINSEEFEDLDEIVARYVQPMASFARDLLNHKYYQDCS
Data set [20] addresses SHF (Homo sapiens) (UniProt Q7M4L6).
The target in data set [21] is PIK3R1-C (Homo sapiens) (UniProt P27986).
Chain of PIK3R1-C (Homo sapiens) (P27986 328-723): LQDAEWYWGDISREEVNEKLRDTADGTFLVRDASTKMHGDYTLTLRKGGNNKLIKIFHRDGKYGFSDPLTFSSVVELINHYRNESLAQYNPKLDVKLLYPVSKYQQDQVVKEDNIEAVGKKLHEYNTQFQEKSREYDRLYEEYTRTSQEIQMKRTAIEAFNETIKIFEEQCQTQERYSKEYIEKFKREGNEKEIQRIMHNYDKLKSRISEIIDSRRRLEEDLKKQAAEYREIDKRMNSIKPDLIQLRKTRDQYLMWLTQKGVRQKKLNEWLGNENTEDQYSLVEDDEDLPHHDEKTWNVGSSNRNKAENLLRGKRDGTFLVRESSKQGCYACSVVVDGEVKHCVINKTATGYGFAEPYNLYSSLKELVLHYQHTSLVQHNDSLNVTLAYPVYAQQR
Data set [22] addresses SOCS3 (Homo sapiens) (UniProt O14543).
Data set [23] concerns the target PTPN6-C (Homo sapiens) (UniProt P29350).
The target in data set [24] is TNS3 (Homo sapiens) (UniProt Q68CZ2).
Chain of TNS3 (Homo sapiens) (Q68CZ2 1167-1287): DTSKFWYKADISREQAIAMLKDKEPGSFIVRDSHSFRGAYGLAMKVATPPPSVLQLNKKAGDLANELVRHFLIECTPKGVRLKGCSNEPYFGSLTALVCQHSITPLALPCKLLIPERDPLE
Data set [25] addresses CRKL (Homo sapiens) (UniProt P46109). The source holds these as a separate data set.
Data set [26] addresses SOCS2 (Homo sapiens) (UniProt O14508).
Data set [27] concerns the target GRB7 (Homo sapiens) (UniProt Q14451).
Data set [28] deals with PLCG2-NC (Homo sapiens) (UniProt P16885). The source holds these as a separate data set.
Chain of PLCG2-NC (Homo sapiens) (P16885 527-740): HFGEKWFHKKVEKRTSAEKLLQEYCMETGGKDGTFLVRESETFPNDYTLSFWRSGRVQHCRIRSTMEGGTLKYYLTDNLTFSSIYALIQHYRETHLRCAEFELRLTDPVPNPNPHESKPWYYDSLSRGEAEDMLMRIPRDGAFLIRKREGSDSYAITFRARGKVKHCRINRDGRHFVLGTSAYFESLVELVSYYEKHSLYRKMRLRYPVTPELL
In data set [29] the target is PTPN11-N (Homo sapiens) (UniProt Q06124).
Data set [30] deals with SHF (Homo sapiens) (UniProt Q7M4L6). The source holds these as a separate data set.
Chain of SHF (Homo sapiens) (Q7M4L6 318-423): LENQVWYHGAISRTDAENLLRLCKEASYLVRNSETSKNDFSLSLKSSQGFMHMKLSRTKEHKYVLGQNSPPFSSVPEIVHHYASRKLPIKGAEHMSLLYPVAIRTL
In data set [31] the target is GRB10 (Homo sapiens) (UniProt Q13322).
Chain of GRB10 (Homo sapiens) (Q13322 488-579): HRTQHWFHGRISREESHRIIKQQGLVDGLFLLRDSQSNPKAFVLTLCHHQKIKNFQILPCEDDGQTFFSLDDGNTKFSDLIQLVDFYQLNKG

Chain of SHC1 (Homo sapiens) (P29353 483-583): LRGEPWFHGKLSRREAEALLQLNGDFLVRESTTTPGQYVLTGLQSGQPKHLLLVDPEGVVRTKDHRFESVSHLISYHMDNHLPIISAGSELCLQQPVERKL
Chain of SOCS2 (Homo sapiens) (O14508 43-161): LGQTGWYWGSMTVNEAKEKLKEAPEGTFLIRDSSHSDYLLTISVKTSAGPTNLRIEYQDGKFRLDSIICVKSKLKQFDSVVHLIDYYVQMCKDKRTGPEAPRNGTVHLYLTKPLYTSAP
Chain of FER (Homo sapiens) (P16591 455-555): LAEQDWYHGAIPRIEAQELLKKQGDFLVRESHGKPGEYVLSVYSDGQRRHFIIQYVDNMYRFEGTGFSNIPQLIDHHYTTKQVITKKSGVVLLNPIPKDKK
Chain of BLK (Homo sapiens) (P51451 119-225): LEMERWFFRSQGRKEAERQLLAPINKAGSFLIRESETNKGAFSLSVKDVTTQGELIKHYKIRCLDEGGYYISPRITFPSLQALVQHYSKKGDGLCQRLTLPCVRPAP
Chain of ABL1 (Homo sapiens) (P00519 122-222): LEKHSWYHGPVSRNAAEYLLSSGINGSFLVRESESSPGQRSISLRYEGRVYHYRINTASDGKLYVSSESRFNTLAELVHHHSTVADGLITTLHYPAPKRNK
Chain of PTPN6-C (Homo sapiens) (P29350 1-218): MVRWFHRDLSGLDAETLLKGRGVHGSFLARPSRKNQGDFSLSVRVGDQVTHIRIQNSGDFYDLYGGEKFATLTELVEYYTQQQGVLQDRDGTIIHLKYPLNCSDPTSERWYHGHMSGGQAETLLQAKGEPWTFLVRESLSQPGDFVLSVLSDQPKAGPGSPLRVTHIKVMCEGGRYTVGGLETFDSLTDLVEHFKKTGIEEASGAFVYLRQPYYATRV
Chain of TNS4 (Homo sapiens) (Q8IZW8 444-561): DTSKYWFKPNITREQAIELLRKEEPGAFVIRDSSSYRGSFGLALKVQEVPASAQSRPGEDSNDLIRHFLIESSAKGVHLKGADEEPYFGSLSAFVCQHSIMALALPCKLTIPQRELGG
Chain of SOCS3 (Homo sapiens) (O14543 41-147): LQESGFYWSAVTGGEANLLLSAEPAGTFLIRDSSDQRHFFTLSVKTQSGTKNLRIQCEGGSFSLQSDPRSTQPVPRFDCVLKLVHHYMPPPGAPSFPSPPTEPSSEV
Chain of PLCG1-NC (Homo sapiens) (P19174 545-761): as the sequence (P19174 545-761) above
Chain of PIK3R2-NC (Homo sapiens) (O00459 325-721): as the sequence (O00459 325-721) above
Chain of NCK2 (Homo sapiens) (O43639 280-380): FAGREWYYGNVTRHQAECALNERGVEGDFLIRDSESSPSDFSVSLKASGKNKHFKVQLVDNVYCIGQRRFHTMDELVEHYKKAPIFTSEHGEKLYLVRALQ
Chain of GRB7 (Homo sapiens) (Q14451 426-532): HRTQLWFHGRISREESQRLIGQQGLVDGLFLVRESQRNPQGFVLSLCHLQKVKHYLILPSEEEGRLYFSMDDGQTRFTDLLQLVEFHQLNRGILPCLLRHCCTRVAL

Take …pYEEMRAFQ: the apparent Kd (screen) in [1] was 1160 nM; in data set [2] it was 1100 nM; in data set [3] it was 999 nM; in [4], 499 nM; in data set [5], 499 nM; in data set [6], 1950 nM. The apparent Kd (screen) in data set [7] was 633 nM; in [8] it was 49 nM.

On to …pYLIPQQGFd, for which the apparent Kd (screen) in data set [9] is 470 nM; in [10], 352 nM; in data set [11], 2000 nM; in [12], 998 nM; in data set [13], 2000 nM; in [14], 2000 nM. The apparent Kd (screen) in data set [15] was 2000 nM.

Turning to …pYLVPQQGF, the apparent Kd (screen) in data set [16] is 527 nM; in data set [17], 2000 nM; in data set [18], 2000 nM; in data set [19] it was 912 nM.

For …pYWDQDPPE, the apparent Kd (screen) in [20] is 2000 nM; in [21] it was 2000 nM; in [22], 2000 nM; in data set [23] it was 2000 nM; in data set [24], 1290 nM; in [25], 1460 nM. Also, the apparent Kd (screen) in data set [26] was 2000 nM; in data set [27], 2000 nM; in [28] it was 263 nM; in data set [29], 2000 nM; in data set [30], 586 nM; in data set [31], 486 nM.
